From the supplement of paper PMC10065799, “High-throughput profiling of sequence recognition by tyrosine kinases and SH2 domains using bacterial peptide display” (eLife, 2023)

How the values were obtained:
c-Src SH2 = experiment: SH2 binding enrichment of the phosphorylated peptide, bacterial display (enrichment ratio); higher = better substrate or ligand; peptides without Tyr show the background
Grb2 SH2 = Grb2 SH2 (UniProt P62993); experiment: as above
SHP2-C SH2 = experiment: as above
Fyn = Fyn (UniProt P06241); experiment: phosphorylation enrichment, bacterial display (enrichment ratio); higher = better substrate or ligand; peptides without Tyr show the background
Chain of Fyn (P06241 whole entry, looked up): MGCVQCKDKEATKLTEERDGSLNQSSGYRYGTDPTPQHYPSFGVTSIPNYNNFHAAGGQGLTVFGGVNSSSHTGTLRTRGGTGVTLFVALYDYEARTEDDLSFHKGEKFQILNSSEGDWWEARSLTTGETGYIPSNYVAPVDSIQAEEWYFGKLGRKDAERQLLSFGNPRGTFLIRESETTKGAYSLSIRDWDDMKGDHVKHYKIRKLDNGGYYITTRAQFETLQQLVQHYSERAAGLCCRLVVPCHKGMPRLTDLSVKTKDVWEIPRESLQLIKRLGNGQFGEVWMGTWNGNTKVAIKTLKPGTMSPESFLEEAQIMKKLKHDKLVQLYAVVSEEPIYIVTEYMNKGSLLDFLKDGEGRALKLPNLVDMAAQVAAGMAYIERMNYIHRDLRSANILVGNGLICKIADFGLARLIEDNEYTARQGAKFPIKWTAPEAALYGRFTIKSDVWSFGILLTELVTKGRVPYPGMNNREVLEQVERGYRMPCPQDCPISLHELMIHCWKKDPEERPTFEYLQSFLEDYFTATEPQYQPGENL

MERTK = MERTK (UniProt Q12866); experiment: as above
Chain of MERTK (Q12866 whole entry, looked up): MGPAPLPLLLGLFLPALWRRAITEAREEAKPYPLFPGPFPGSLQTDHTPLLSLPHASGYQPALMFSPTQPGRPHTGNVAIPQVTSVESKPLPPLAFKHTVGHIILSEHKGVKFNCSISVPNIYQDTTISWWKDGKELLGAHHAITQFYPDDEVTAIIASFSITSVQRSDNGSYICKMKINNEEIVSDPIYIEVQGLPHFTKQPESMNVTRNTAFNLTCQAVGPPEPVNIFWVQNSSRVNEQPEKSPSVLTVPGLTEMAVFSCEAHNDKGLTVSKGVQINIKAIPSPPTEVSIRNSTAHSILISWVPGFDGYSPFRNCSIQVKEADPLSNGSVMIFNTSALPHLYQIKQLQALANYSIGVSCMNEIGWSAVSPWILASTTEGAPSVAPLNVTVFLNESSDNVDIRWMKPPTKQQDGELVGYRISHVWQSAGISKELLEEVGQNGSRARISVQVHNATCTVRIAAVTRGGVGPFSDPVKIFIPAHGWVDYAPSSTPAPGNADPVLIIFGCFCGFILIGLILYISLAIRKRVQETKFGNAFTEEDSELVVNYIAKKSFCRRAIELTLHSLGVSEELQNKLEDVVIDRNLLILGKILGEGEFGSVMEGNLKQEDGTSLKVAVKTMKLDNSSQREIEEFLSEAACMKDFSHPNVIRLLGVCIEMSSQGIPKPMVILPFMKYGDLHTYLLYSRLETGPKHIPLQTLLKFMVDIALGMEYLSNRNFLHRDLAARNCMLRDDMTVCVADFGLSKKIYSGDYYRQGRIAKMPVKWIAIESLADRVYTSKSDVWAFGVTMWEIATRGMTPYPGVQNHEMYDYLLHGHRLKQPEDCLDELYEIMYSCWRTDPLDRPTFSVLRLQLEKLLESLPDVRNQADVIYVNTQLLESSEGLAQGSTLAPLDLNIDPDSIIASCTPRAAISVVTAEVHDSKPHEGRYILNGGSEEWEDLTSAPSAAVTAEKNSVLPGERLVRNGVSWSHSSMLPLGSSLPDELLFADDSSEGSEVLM

Hck = Hck (UniProt P08631); experiment: as above
Chain of Hck (P08631 whole entry, looked up): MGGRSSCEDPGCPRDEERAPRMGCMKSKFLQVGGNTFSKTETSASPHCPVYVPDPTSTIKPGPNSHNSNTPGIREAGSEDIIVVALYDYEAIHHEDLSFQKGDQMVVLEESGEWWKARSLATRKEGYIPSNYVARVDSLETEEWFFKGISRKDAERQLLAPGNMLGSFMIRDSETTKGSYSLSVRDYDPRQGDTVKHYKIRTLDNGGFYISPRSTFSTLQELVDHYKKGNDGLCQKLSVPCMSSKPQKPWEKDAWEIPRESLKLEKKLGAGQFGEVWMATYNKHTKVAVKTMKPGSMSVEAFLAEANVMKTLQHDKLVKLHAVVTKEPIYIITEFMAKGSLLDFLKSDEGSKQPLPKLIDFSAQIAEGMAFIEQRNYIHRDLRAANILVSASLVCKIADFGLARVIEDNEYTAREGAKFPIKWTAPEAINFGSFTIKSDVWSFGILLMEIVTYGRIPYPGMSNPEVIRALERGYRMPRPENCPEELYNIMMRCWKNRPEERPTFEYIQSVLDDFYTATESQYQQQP

AncSZ = experiment: as above
FGFR1 = FGFR1 (UniProt P11362); experiment: as above
Chain of FGFR1 (P11362 whole entry, looked up): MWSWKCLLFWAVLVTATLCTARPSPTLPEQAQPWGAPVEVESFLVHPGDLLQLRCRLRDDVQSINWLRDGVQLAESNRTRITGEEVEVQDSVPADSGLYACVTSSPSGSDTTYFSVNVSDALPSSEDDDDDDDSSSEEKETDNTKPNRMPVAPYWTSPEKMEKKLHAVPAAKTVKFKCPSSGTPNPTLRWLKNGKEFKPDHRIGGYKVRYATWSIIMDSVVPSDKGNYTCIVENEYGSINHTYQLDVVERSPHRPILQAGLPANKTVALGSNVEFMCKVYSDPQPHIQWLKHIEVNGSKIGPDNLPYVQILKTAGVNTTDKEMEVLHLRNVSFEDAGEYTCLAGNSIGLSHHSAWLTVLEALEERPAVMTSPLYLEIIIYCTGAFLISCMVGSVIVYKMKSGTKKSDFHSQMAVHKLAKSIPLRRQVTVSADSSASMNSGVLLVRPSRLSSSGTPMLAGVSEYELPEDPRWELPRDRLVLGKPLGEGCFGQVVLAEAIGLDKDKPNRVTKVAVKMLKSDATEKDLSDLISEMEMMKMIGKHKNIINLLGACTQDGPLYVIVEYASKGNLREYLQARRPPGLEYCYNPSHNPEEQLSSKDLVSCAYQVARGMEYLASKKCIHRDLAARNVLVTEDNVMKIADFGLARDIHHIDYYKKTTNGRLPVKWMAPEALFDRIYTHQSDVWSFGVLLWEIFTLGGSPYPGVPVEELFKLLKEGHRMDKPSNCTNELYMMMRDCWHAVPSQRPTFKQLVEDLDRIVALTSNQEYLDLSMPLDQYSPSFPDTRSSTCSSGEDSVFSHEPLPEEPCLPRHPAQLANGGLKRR

EPHB2 = EPHB2 (UniProt P29323); experiment: as above
Chain of EPHB2 (P29323 whole entry, looked up): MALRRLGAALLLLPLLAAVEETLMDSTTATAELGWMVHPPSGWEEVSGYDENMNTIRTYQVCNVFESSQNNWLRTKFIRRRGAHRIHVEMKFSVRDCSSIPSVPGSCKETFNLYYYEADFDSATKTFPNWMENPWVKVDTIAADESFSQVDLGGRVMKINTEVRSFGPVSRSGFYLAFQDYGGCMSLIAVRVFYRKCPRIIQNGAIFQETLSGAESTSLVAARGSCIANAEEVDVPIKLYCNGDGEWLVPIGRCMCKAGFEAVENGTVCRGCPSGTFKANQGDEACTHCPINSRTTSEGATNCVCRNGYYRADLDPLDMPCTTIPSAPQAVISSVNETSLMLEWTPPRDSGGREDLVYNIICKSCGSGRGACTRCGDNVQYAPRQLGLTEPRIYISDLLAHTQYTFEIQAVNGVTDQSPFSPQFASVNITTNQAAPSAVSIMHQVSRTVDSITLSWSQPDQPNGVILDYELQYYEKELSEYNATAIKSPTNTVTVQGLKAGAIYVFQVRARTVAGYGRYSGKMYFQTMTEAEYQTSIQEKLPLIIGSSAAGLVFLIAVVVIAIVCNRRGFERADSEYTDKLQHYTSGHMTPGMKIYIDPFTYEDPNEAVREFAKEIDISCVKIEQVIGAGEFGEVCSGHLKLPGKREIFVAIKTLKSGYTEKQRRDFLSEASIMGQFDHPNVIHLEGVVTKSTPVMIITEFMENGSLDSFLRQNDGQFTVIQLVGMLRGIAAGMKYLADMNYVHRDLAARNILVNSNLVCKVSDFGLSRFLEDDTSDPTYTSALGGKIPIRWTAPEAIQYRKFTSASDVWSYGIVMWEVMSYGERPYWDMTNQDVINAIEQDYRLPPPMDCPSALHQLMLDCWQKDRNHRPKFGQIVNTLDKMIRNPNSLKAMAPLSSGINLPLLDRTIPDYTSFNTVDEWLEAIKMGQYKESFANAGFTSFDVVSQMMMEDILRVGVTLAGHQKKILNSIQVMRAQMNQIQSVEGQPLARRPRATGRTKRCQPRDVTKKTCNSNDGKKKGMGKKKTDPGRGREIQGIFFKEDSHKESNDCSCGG

Jak2 = Jak2 (UniProt O60674); experiment: as above
Chain of Jak2 (O60674 whole entry, looked up): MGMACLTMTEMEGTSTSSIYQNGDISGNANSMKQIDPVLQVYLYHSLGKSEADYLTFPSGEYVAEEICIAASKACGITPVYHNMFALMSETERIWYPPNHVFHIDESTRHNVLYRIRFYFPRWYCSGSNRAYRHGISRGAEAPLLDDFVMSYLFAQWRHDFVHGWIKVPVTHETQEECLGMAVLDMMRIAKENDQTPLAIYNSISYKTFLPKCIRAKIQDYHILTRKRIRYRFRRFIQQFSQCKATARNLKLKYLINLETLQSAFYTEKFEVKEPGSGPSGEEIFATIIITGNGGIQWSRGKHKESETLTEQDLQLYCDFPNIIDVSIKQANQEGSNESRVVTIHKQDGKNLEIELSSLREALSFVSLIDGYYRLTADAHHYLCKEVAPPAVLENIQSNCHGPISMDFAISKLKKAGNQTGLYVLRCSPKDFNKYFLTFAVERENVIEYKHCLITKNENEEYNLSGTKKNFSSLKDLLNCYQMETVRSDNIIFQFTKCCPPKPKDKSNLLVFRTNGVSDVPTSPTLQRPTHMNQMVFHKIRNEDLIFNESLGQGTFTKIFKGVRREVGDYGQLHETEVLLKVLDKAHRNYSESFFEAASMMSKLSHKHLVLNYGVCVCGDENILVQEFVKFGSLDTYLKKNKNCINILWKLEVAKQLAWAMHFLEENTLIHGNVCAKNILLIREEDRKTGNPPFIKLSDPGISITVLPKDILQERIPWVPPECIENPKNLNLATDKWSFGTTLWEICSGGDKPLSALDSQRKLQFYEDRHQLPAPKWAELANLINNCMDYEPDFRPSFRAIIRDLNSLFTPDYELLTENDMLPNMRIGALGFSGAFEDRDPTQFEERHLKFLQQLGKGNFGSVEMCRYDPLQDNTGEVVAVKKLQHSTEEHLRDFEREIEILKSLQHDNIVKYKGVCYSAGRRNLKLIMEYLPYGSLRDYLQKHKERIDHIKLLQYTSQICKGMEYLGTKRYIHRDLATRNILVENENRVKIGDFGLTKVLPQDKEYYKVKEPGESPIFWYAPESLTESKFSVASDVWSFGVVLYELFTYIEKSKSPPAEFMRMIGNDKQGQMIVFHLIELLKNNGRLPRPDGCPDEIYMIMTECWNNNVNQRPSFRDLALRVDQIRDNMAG

c-Abl (mouse) = experiment: as above
Fes = Fes (UniProt P07332); experiment: as above
Fer (mouse) = experiment: as above
c-Src = experiment: as above
FGFR3 = FGFR3 (UniProt P22607); experiment: as above
EPHB1 = EPHB1 (UniProt P54762); experiment: as above
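Wherever SH2 binding enrichment of the phosphorylated peptide, bacterial display is given: peptide library displayed on the E. coli surface as eCPX fusions, selected cells deep-sequenced, score is each peptide's frequency after selection divided by its frequency in the input.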
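Wherever phosphorylation enrichment, bacterial display is given: 11-residue human phosphosite peptides and single-mutation variants displayed on the E. coli surface, counted by deep sequencing, each peptide's frequency after selection divided by its frequency in the unselected input library; frequency after pTyr selection over input frequency; kinase dosed for 20-30% of maximal phosphorylation in three min.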

Sequence | SH2 binding enrichment (c-Src SH2) | SH2 binding enrichment (Grb2 SH2) | SH2 binding enrichment (SHP2-C SH2) | phosphorylation enrichment (Fyn) | phosphorylation enrichment (MERTK) | phosphorylation enrichment (Hck) | phosphorylation enrichment (AncSZ) | phosphorylation enrichment (FGFR1) | phosphorylation enrichment (EPHB2) | phosphorylation enrichment (Jak2) | phosphorylation enrichment (c-Abl (mouse)) | phosphorylation enrichment (Fes) | phosphorylation enrichment (Fer (mouse)) | phosphorylation enrichment (c-Src) | phosphorylation enrichment (FGFR3) | phosphorylation enrichment (EPHB1)
RLLRGYNQSAY [HLA-C_Y137_D138N] | 0.825 | 1.11 | 1.09 | 0.41 | 0.275 | 0.507 | 0.44 | 0.386 | 0.454 | 0.307 | 0.36 | 0.412 | 0.321 | 0.267 | 0.499 | 0.538
PVVKLYATEGR [RP1_Y199_D202E] | 0.702 | 0.966 | 1.1 | 0.633 | 0.574 | 0.794 | 0.858 | 0.496 | 0.251 | 0.683 | 0.71 | 0.807 | 0.455 | 0.54 | 0.568 | 0.389
RAADYYSQQMA [GBP6_Y334] | 0.545 | 1.01 | 0.63 | 0.371 | 0.39 | 0.456 | 0.537 | 1.38 | 0.339 | 0.672 | 0.576 | 0.619 | 0.416 | 0.435 | 0.875 | 0.917
PLDGEHFTLQI [TP53_Y327_Y327H] | 0.451 | 0.644 | 2.55 | 0.668 | 0.465 | 0.786 | 1.62 | 0.587 | 0.632 | 1.43 | 1.19 | 1.87 | 0.646 | 0.605 | 0.885 | 0.577
ETGEPCRLSPE [EIF4G1_Y311_Y311C] | 0.664 | 0.866 | 0.618 | 0.531 | 0.536 | 0.689 | 1.13 | 0.612 | 0.674 | 1.15 | 1.01 | 1.31 | 0.55 | 0.553 | 0.846 | 0.62
LKVDVYRRSHK [FUT3_Y222_G223R] | 0.677 | 1.08 | 0.931 | 0.44 | 0.546 | 0.577 | 1.11 | 0.611 | 0.496 | 1.78 | 0.908 | 1.46 | 0.485 | 0.753 | 0.85 | 0.656
TLCLCYKETEE [ATP8B1_Y658_I661T] | 0.496 | 0.783 | 0.672 | 0.708 | 0.483 | 0.647 | 1.42 | 0.573 | 0.749 | 1.53 | 1.29 | 1.64 | 0.737 | 0.617 | 0.903 | 0.879
LLKNMYLMLDN [STAT1_Y203_K201N] | 0.945 | 0.975 | 3.55 | 0.593 | 0.745 | 0.921 | 2.85 | 0.868 | 1.02 | 2.77 | 1.7 | 2.63 | 1.02 | 0.933 | 1.65 | 1.34
PDMHSYMVRYN [GRIN2D_Y732] | 0.613 | 0.858 | 0.97 | 0.64 | 0.616 | 0.706 | 0.955 | 0.767 | 0.787 | 1.07 | 1.02 | 1.09 | 0.674 | 0.782 | 1.04 | 0.637
KATKGYLDDPT [G6PD_Y322_E317K] | 0.489 | 0.888 | 0.84 | 0.405 | 0.443 | 0.417 | 0.73 | 0.529 | 0.603 | 0.755 | 0.451 | 0.639 | 0.329 | 0.395 | 0.484 | 0.431
ADGLEYPRTGL [MMUT_Y287_S288P] | 0.465 | 0.679 | 0.598 | 0.508 | 0.319 | 0.47 | 0.722 | 0.414 | 0.55 | 0.495 | 0.528 | 0.835 | 0.47 | 0.288 | 0.59 | 0.425
ASTDFYKRGDF [PDHA1_Y243_YF] | 0.5 | 0.614 | 0.611 | 0.325 | 0.345 | 0.39 | 0.719 | 0.413 | 0.375 | 0.749 | 0.515 | 0.795 | 0.475 | 0.52 | 0.431 | 0.374
SAPPSYEETVA [LITAF_Y23] | 0.909 | 0.761 | 0.975 | 0.645 | 0.414 | 0.569 | 1.1 | 0.65 | 0.636 | 0.828 | 0.727 | 1.09 | 0.531 | 0.398 | 0.672 | 0.6
YGAHKYHPLPV [OAT_Y55_N54K] | 1.36 | 1.65 | 1.74 | 0.611 | 0.442 | 0.787 | 0.657 | 0.444 | 0.39 | 0.557 | 0.498 | 0.892 | 1.08 | 0.562 | 0.403 | 0.371
QDEHGYISRCF [HSPB1_Y133] | 0.445 | 0.662 | 0.763 | 0.741 | 0.396 | 0.838 | 1.23 | 0.555 | 0.923 | 0.965 | 0.861 | 1.19 | 0.601 | 0.418 | 0.792 | 0.718
KDHLDYKFQPR [SOX9_Y172_P170L_YF] | 0.47 | 0.823 | 0.685 | 0.431 | 0.409 | 0.352 | 0.73 | 0.498 | 0.478 | 0.922 | 0.642 | 1.02 | 0.392 | 0.504 | 0.531 | 0.475
YHLLPYTVRAM [PARS2_Y93] | 5.37 | 1.15 | 1.81 | 3.04 | 9.72 | 8.34 | 1.28 | 16.5 | 1.47 | 6.87 | 24.6 | 0.913 | 0.595 | 3.84 | 13.9 | 2.32

Sequence | SH2 binding enrichment (c-Src SH2) | SH2 binding enrichment (Grb2 SH2) | SH2 binding enrichment (SHP2-C SH2) | phosphorylation enrichment (Fyn) | phosphorylation enrichment (MERTK) | phosphorylation enrichment (Hck) | phosphorylation enrichment (AncSZ) | phosphorylation enrichment (FGFR1) | phosphorylation enrichment (EPHB2) | phosphorylation enrichment (Jak2) | phosphorylation enrichment (c-Abl (mouse)) | phosphorylation enrichment (Fes) | phosphorylation enrichment (Fer (mouse)) | phosphorylation enrichment (c-Src) | phosphorylation enrichment (FGFR3) | phosphorylation enrichment (EPHB1)
TEFSQYMRRKN [MAX_Y73_I71S_YF] | 0.37 | 0.608 | 0.279 | 0.647 | 0.727 | 0.715 | 0.76 | 0.718 | 0.625 | 0.727 | 0.836 | 0.901 | 0.516 | 0.735 | 0.626 | 0.538
KAWTIYRPEDS [ZBP1_Y165] | 0.488 | 0.746 | 0.719 | 0.494 | 0.478 | 0.482 | 1.41 | 0.539 | 0.512 | 1.17 | 0.757 | 1.15 | 0.449 | 0.566 | 0.643 | 0.461
MDDPRYGMCPL [ZNF100_Y6] | 0.522 | 0.632 | 0.506 | 0.721 | 0.56 | 0.56 | 1.16 | 0.538 | 0.675 | 1.27 | 1.01 | 1.38 | 0.607 | 0.685 | 0.838 | 0.687
FMRGMYFRMTD [PLA2G6_Y541_K545T_YF] | 0.914 | 0.941 | 1.43 | 0.434 | 0.438 | 0.513 | 1.09 | 0.496 | 0.563 | 1.39 | 0.715 | 1.2 | 0.506 | 0.481 | 0.663 | 0.698
RRYLYYYSYLL [PTEN_Y177_V175L] | 0.686 | 0.973 | 0.712 | 0.816 | 5.8 | 1.17 | 1.13 | 1.74 | 0.91 | 3.29 | 1.02 | 1.75 | 1.24 | 1.68 | 1.93 | 1.13
FADIAYNFRHG [PAH_Y166_YF] | 0.516 | 0.878 | 0.78 | 0.558 | 0.428 | 0.506 | 0.67 | 0.581 | 0.514 | 0.734 | 0.578 | 0.713 | 0.396 | 0.532 | 0.512 | 0.522
EWQQIYTYDSG [JUP_Y20_T19I] | 0.968 | 0.885 | 0.734 | 8.85 | 7.85 | 6.09 | 1.6 | 6.84 | 0.971 | 1 | 0.75 | 1.18 | 4.55 | 6.89 | 5.58 | 1.69
LTEEKYELKEG [TREM1_Y29] | 0.494 | 1.14 | 0.639 | 0.698 | 0.705 | 0.782 | 2.36 | 0.711 | 0.875 | 1.65 | 0.785 | 1.41 | 0.593 | 0.52 | 0.979 | 0.977
DEDYLCREELA [POR_Y575_Y575C] | 0.444 | 0.948 | 0.917 | 0.878 | 0.676 | 0.99 | 1.68 | 0.683 | 0.725 | 0.929 | 0.737 | 1.54 | 0.812 | 0.556 | 1.43 | 0.842
LIHTKCPQLLP [AHCY_Y143_Y143C] | 0.714 | 0.941 | 0.762 | 0.438 | 0.476 | 0.509 | 0.693 | 0.509 | 0.607 | 0.654 | 0.604 | 0.936 | 0.46 | 0.433 | 0.631 | 0.516
FIPFRYPKEFQ [IDS_Y234_H229Y_YF] | 0.534 | 0.876 | 0.613 | 0.469 | 0.409 | 0.469 | 0.705 | 0.465 | 0.494 | 0.548 | 0.595 | 0.883 | 0.323 | 0.565 | 0.516 | 0.316
ADPQEYIPLPA [JAKtide_2014] | 0.571 | 1 | 0.809 | 0.512 | 0.425 | 0.549 | 0.904 | 0.75 | 0.49 | 0.865 | 0.628 | 0.983 | 0.457 | 0.468 | 0.693 | 0.529
ENAGYYFRVSA | 0.415 | 0.788 | 0.976 | 0.435 | 0.347 | 0.476 | 1.26 | 0.508 | 0.665 | 1.21 | 0.775 | 1.26 | 0.456 | 0.322 | 0.719 | 0.568
ARVANYHRDGP [CAT_Y386_Q387H] | 0.49 | 0.776 | 0.769 | 0.44 | 0.385 | 0.36 | 0.523 | 0.519 | 0.378 | 0.491 | 0.457 | 0.514 | 0.372 | 0.395 | 0.394 | 0.309
FISLIYTNFEV [GSTP1_Y109_A114V_YF] | 0.611 | 0.774 | 0.882 | 3.99 | 4.4 | 2.7 | 2.18 | 0.839 | 0.903 | 1.79 | 3.47 | 1.77 | 5.37 | 5.5 | 1.21 | 1.07
WVYNHYRWFIW [BRCA2_Y2624_I2627F] | 0.666 | 0.966 | 0.733 | 0.441 | 0.418 | 0.403 | 1.12 | 0.406 | 0.466 | 1.15 | 0.777 | 1.24 | 0.49 | 0.433 | 0.667 | 0.506
